The source of these data is patent publication US20030186334A1, “KTS-disintegrins” (Temple University - Of the Commonwealth System of Higher …, priority 2001, published 2003).

The test addresses human α1β1 integrin (human), P56199. Put plainly: inhibition of adhesion of α1K562 cells to immobilised collagen IV.

Sequence of human α1β1 integrin (human), P56199 (P56199 29-1179, chain 1 of 2): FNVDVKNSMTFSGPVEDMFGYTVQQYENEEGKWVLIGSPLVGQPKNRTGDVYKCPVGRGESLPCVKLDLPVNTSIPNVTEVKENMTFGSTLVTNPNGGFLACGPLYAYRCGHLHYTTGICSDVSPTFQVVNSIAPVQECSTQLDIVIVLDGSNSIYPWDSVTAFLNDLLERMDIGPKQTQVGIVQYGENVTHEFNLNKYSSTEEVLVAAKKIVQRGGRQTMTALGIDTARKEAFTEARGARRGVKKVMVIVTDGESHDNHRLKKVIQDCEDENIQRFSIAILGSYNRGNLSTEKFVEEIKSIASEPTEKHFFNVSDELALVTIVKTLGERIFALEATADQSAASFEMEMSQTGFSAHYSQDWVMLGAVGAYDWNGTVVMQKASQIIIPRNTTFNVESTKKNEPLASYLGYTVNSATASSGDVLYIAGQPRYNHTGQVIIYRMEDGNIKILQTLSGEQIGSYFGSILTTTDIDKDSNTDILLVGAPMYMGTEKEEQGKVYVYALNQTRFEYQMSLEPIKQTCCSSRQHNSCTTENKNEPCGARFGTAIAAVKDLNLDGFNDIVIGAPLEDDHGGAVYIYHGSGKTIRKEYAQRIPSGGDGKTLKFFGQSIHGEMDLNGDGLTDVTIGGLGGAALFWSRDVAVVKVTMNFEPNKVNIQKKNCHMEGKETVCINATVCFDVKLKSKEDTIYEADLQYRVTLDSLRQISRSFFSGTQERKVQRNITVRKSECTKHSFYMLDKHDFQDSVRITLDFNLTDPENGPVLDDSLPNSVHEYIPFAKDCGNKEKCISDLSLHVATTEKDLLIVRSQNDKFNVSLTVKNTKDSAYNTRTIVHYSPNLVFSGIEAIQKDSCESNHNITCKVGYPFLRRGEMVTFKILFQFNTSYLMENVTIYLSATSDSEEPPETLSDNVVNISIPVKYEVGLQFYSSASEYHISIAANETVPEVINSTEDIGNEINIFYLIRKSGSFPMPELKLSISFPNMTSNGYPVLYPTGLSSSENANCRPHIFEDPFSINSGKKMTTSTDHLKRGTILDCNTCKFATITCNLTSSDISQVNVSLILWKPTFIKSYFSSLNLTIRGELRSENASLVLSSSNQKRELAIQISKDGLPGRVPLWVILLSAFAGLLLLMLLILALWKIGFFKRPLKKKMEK
Sequence of human α1β1 integrin (human), P56199 (P05556 21-798, chain 2 of 2, further chain): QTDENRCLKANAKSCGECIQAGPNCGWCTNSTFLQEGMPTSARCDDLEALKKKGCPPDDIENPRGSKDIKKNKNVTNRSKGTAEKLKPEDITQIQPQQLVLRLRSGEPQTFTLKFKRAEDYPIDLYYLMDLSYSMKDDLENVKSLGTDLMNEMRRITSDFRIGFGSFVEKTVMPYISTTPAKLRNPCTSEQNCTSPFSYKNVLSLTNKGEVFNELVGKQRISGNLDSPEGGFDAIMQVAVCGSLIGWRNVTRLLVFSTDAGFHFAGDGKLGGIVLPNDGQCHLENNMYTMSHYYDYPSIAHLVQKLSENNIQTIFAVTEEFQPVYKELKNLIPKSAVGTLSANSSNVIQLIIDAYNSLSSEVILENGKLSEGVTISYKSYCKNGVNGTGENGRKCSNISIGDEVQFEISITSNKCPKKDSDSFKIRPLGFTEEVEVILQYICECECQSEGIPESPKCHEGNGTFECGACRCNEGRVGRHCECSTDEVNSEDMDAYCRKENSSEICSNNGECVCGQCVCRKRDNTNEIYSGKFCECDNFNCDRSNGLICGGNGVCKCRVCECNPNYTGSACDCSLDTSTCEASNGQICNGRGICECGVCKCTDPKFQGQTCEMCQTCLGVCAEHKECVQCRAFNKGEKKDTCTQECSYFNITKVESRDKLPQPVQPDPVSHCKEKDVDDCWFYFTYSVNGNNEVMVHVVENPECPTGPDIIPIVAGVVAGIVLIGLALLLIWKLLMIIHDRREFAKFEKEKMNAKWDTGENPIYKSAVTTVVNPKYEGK

By IC50 is commonly meant the point on the concentration scale where inhibition reaches its midpoint. High values mean weaker potency in that assay, low ones greater potency in that assay. As for TSLTS (modifications not checked) [synthetic peptide TSLTS (SEQ ID NO: 6)], the IC50 was 3.5 mM.
